# According to patent publication US20220411483A1 (Chugai, published 2022):
# T1: FcγRIIa R type extracellular domain with C-terminal His tag (human, UniProt P12318 34-217)
# T1 construct: extracellular domain; also called FcgRIIaR
# T1 sequence (looked up): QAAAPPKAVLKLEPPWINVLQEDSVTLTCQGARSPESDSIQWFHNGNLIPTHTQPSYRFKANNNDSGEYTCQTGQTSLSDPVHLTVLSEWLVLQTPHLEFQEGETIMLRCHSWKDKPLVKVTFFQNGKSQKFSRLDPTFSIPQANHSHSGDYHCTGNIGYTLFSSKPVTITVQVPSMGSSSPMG
# Biological target: T1, FcγRIIa R type extracellular domain …
# Experiment: SPR (Biacore), FcgR as analyte
row,Binder,Kd [nM]
1,"IL6R-BP085/IL6R-L (antibody, human IgG1, kappa, name in EU numbering, IgG1; alterations on IL6R-B3, EU numbering) heavy: QVQLQESGPGLVKPSETLSLTCAVSGHSISHDHAWSWVRQPPGEGLEWIGFISYSGITNYNPSLQGRVTISRDNSKNTLYLQMNSLRAEDTAVYYCARSLARTTAMDYWGEGTLVTVSSASTKGPSVFPLAPSSKSTSGGTAALGCLVKDYFPEPVTVSWNSGALTSGVHTFPAVLQSSGLYSLSSVVTVPSSSLGTQTYICNVNHKPSNTKVDKKVEPKSCDKTHTCPPCPAPELLGDDSVFLFPPKPKDTLMISRTPEVTCVVVDVSHEDPEVKFNWYVDGVEVHNAKTKPREEQYNSTYRVVSVLTVLHQDWLNGKEYKCKVSNKALPKPIEKTISKAKGQPREPQVYTLPPSRDELTKNQVSLTCLVKGFYPSDIAVEWESNGQPENNYKTTPPVLDSDGSFFLYSKLTVDKSRWQQGNVFSCSVMHEALHNHYTQESLSLSP light: not shown",4200
2,"IL6R-BP183/IL6R-L (antibody, human IgG1, kappa, name in EU numbering, IgG1; alterations on IL6R-B3, EU numbering) heavy: QVQLQESGPGLVKPSETLSLTCAVSGHSISHDHAWSWVRQPPGEGLEWIGFISYSGITNYNPSLQGRVTISRDNSKNTLYLQMNSLRAEDTAVYYCARSLARTTAMDYWGEGTLVTVSSASTKGPSVFPLAPSSKSTSGGTAALGCLVKDYFPEPVTVSWNSGALTSGVHTFPAVLQSSGLYSLSSVVTVPSSSLGTQTYICNVNHKPSNTKVDKKVEPKSCDKTHTCPPCPAPDYLGGDSVFLFPPKPKDTLMISRTPEVTCVVVDVSHEDGEVKFNWYVDGVEVHNAKTKPREEQYNSTYRVVSVLTVLHQDWLNGKEYKCKVSNAALPKPIEKTISKAKGQPREPQVYTLPPSRDELTKNQVSLTCLVKGFYPSDIAVEWESNGQPENNYKTTPPVLDSDGSFFLYSKLTVDKSRWQQGNVFSCSVMHEALHNHYTQESLSLSP light: not shown",2600
3,"IL6R-BP132/IL6R-L (antibody, human IgG1, kappa, name in EU numbering, IgG1; alterations on IL6R-B3, EU numbering) heavy: QVQLQESGPGLVKPSETLSLTCAVSGHSISHDHAWSWVRQPPGEGLEWIGFISYSGITNYNPSLQGRVTISRDNSKNTLYLQMNSLRAEDTAVYYCARSLARTTAMDYWGEGTLVTVSSASTKGPSVFPLAPSSKSTSGGTAALGCLVKDYFPEPVTVSWNSGALTSGVHTFPAVLQSSGLYSLSSVVTVPSSSLGTQTYICNVNHKPSNTKVDKKVEPKSCDKTHTCPPCPAPDLLGGDSVFLFPPKPKDTLMISRTPEVTCVVVDVSHEDPEVKFNWYVDGVEVHNAKTKPREEQYNSTYRVVSVLTVLHQDWLNGKEYKCKVSNAALPKPIEKTISKAKGQPREPQVYTLPPSRDELTKNQVSLTCLVKGFYPSDIAVEWESNGQPENNYKTTPPVLDSDGSFFLYSKLTVDKSRWQQGNVFSCSVMHEALHNHYTQESLSLSP light: not shown",8000
4,"IL6R-BP196/IL6R-L (antibody, human IgG1, kappa, name in EU numbering, IgG1; alterations on IL6R-B3, EU numbering) heavy: QVQLQESGPGLVKPSETLSLTCAVSGHSISHDHAWSWVRQPPGEGLEWIGFISYSGITNYNPSLQGRVTISRDNSKNTLYLQMNSLRAEDTAVYYCARSLARTTAMDYWGEGTLVTVSSASTKGPSVFPLAPSSKSTSGGTAALGCLVKDYFPEPVTVSWNSGALTSGVHTFPAVLQSSGLYSLSSVVTVPSSSLGTQTYICNVNHKPSNTKVDKKVEPKSCDKTHTCPPCPAPEYLGGDSVFLFPPKPKDTLMISRTPEVTCVVVDVSDEDGEVKFNWYVDGVEVHNAKTKPREEQYNSTYRVVSVLTVLHQDWLNGKEYKCKVSNAALPKPIEKTISKAKGQPREPQVYTLPPSRDELTKNQVSLTCLVKGFYPSDIAVEWESNGQPENNYKTTPPVLDSDGSFFLYSKLTVDKSRWQQGNVFSCSVMHEALHNHYTQESLSLSP light: not shown",3000
5,"IL6R-BP204/IL6R-L (antibody, human IgG1, kappa, name in EU numbering, IgG1; alterations on IL6R-B3, EU numbering) heavy: QVQLQESGPGLVKPSETLSLTCAVSGHSISHDHAWSWVRQPPGEGLEWIGFISYSGITNYNPSLQGRVTISRDNSKNTLYLQMNSLRAEDTAVYYCARSLARTTAMDYWGEGTLVTVSSASTKGPSVFPLAPSSKSTSGGTAALGCLVKDYFPEPVTVSWNSGALTSGVHTFPAVLQSSGLYSLSSVVTVPSSSLGTQTYICNVNHKPSNTKVDKKVEPKSCDKTHTCPPCPAPDLLGGDSVFLFPPKPKDTLMISRTPEVTCVVVDVSHEDGEVKFNWYVDGVEVHNAKTKPREEQYNSTYRVVSVLTVLHQDWLNGKEYKCKVSNAALPRPIEKTISKAKGQPREPQVYTLPPSRDELTKNQVSLTCLVKGFYPSDIAVEWESNGQPENNYKTTPPVLDSDGSFFLYSKLTVDKSRWQQGNVFSCSVMHEALHNHYTQESLSLSP light: not shown",4500
6,"IL6R-BP188/IL6R-L (antibody, human IgG1, kappa, name in EU numbering, IgG1; alterations on IL6R-B3, EU numbering) heavy: QVQLQESGPGLVKPSETLSLTCAVSGHSISHDHAWSWVRQPPGEGLEWIGFISYSGITNYNPSLQGRVTISRDNSKNTLYLQMNSLRAEDTAVYYCARSLARTTAMDYWGEGTLVTVSSASTKGPSVFPLAPSSKSTSGGTAALGCLVKDYFPEPVTVSWNSGALTSGVHTFPAVLQSSGLYSLSSVVTVPSSSLGTQTYICNVNHKPSNTKVDKKVEPKSCDKTHTCPPCPAPDLLGDDSVFLFPPKPKDTLMISRTPEVTCVVVDVSDEDGEVKFNWYVDGVEVHNAKTKPREEQYNSTYRVVSVLTVLHQDWLNGKEYKCKVSNKALPKPIEKTISKAKGQPREPQVYTLPPSRDELTKNQVSLTCLVKGFYPSDIAVEWESNGQPENNYKTTPPVLDSDGSFFLYSKLTVDKSRWQQGNVFSCSVMHEALHNHYTQESLSLSP light: not shown",1000
7,"IL6R-BP211/IL6R-L (antibody, human IgG1, kappa, name in EU numbering, IgG1; alterations on IL6R-B3, EU numbering) heavy: QVQLQESGPGLVKPSETLSLTCAVSGHSISHDHAWSWVRQPPGEGLEWIGFISYSGITNYNPSLQGRVTISRDNSKNTLYLQMNSLRAEDTAVYYCARSLARTTAMDYWGEGTLVTVSSASTKGPSVFPLAPSSKSTSGGTAALGCLVKDYFPEPVTVSWNSGALTSGVHTFPAVLQSSGLYSLSSVVTVPSSSLGTQTYICNVNHKPSNTKVDKKVEPKSCDKTHTCPPCPAPDLLGGDSVFLFPPKPKDTLMISRTPEVTCVVVDVSDEDGEVKFNWYVDGVEVHNAKTKPREEQYNSTYRVVSVLTVLHQDWLNGKEYKCKVSNAALPRPIEKTISKAKGQPREPQVYTLPPSRDELTKNQVSLTCLVKGFYPSDIAVEWESNGQPENNYKTTPPVLDSDGSFFLYSKLTVDKSRWQQGNVFSCSVMHEALHNHYTQESLSLSP light: not shown",4100
8,"IL6R-BP184/IL6R-L (antibody, human IgG1, kappa, name in EU numbering, IgG1; alterations on IL6R-B3, EU numbering) heavy: QVQLQESGPGLVKPSETLSLTCAVSGHSISHDHAWSWVRQPPGEGLEWIGFISYSGITNYNPSLQGRVTISRDNSKNTLYLQMNSLRAEDTAVYYCARSLARTTAMDYWGEGTLVTVSSASTKGPSVFPLAPSSKSTSGGTAALGCLVKDYFPEPVTVSWNSGALTSGVHTFPAVLQSSGLYSLSSVVTVPSSSLGTQTYICNVNHKPSNTKVDKKVEPKSCDKTHTCPPCPAPDLLGGDSVFLFPPKPKDTLMISRTPEVTCVVVDVSHEDGEVKFNWYVDGVEVHNAKTKPREEQYNSTYRVVSVLTVLHQDWLNGKEYKCKVSNKALPKPIEKTISKAKGQPREPQVYTLPPSRDELTKNQVSLTCLVKGFYPSDIAVEWESNGQPENNYKTTPPVLDSDGSFFLYSKLTVDKSRWQQGNVFSCSVMHEALHNHYTQESLSLSP light: not shown",2300

# Next, values leading:
row,Kd [nM],Binder
1,1000,"IL6R-BP210/IL6R-L (antibody, human IgG1, kappa, name in EU numbering, IgG1; alterations on IL6R-B3, EU numbering) heavy: QVQLQESGPGLVKPSETLSLTCAVSGHSISHDHAWSWVRQPPGEGLEWIGFISYSGITNYNPSLQGRVTISRDNSKNTLYLQMNSLRAEDTAVYYCARSLARTTAMDYWGEGTLVTVSSASTKGPSVFPLAPSSKSTSGGTAALGCLVKDYFPEPVTVSWNSGALTSGVHTFPAVLQSSGLYSLSSVVTVPSSSLGTQTYICNVNHKPSNTKVDKKVEPKSCDKTHTCPPCPAPELLGDDSVFLFPPKPKDTLMISRTPEVTCVVVDVSDEDGEVKFNWYVDGVEVHNAKTKPREEQYNSTYRVVSVLTVLHQDWLNGKEYKCKVSNKALPRPIEKTISKAKGQPREPQVYTLPPSRDELTKNQVSLTCLVKGFYPSDIAVEWESNGQPENNYKTTPPVLDSDGSFFLYSKLTVDKSRWQQGNVFSCSVMHEALHNHYTQESLSLSP light: not shown"
2,980,"IL6R-BP197/IL6R-L (antibody, human IgG1, kappa, name in EU numbering, IgG1; alterations on IL6R-B3, EU numbering) heavy: QVQLQESGPGLVKPSETLSLTCAVSGHSISHDHAWSWVRQPPGEGLEWIGFISYSGITNYNPSLQGRVTISRDNSKNTLYLQMNSLRAEDTAVYYCARSLARTTAMDYWGEGTLVTVSSASTKGPSVFPLAPSSKSTSGGTAALGCLVKDYFPEPVTVSWNSGALTSGVHTFPAVLQSSGLYSLSSVVTVPSSSLGTQTYICNVNHKPSNTKVDKKVEPKSCDKTHTCPPCPAPDYLGDDSVFLFPPKPKDTLMISRTPEVTCVVVDVSDEDGEVKFNWYVDGVEVHNAKTKPREEQDNSTYRVVSVLTVLHQDWLNGKEYKCKVSNDALPKPIEKTISKAKGQPREPQVYTLPPSRDELTKNQVSLTCLVKGFYPSDIAVEWESNGQPENNYKTTPPVLDSDGSFFLYSKLTVDKSRWQQGNVFSCSVMHEALHNHYTQESLSLSP light: not shown"
3,960,"IL6R-BP186/IL6R-L (antibody, human IgG1, kappa, name in EU numbering, IgG1; alterations on IL6R-B3, EU numbering) heavy: QVQLQESGPGLVKPSETLSLTCAVSGHSISHDHAWSWVRQPPGEGLEWIGFISYSGITNYNPSLQGRVTISRDNSKNTLYLQMNSLRAEDTAVYYCARSLARTTAMDYWGEGTLVTVSSASTKGPSVFPLAPSSKSTSGGTAALGCLVKDYFPEPVTVSWNSGALTSGVHTFPAVLQSSGLYSLSSVVTVPSSSLGTQTYICNVNHKPSNTKVDKKVEPKSCDKTHTCPPCPAPDYLGDDSVFLFPPKPKDTLMISRTPEVTCVVVDVSHEDGEVKFNWYVDGVEVHNAKTKPREEQDNSTYRVVSVLTVLHQDWLNGKEYKCKVSNAALPKPIEKTISKAKGQPREPQVYTLPPSRDELTKNQVSLTCLVKGFYPSDIAVEWESNGQPENNYKTTPPVLDSDGSFFLYSKLTVDKSRWQQGNVFSCSVMHEALHNHYTQESLSLSP light: not shown"
4,850,"IL6R-BP208/IL6R-L (antibody, human IgG1, kappa, name in EU numbering, IgG1; alterations on IL6R-B3, EU numbering) heavy: QVQLQESGPGLVKPSETLSLTCAVSGHSISHDHAWSWVRQPPGEGLEWIGFISYSGITNYNPSLQGRVTISRDNSKNTLYLQMNSLRAEDTAVYYCARSLARTTAMDYWGEGTLVTVSSASTKGPSVFPLAPSSKSTSGGTAALGCLVKDYFPEPVTVSWNSGALTSGVHTFPAVLQSSGLYSLSSVVTVPSSSLGTQTYICNVNHKPSNTKVDKKVEPKSCDKTHTCPPCPAPDLLGDDSVFLFPPKPKDTLMISRTPEVTCVVVDVSDEDGEVKFNWYVDGVEVHNAKTKPREEQYNSTYRVVSVLTVLHQDWLNGKEYKCKVSNKALPRPIEKTISKAKGQPREPQVYTLPPSRDELTKNQVSLTCLVKGFYPSDIAVEWESNGQPENNYKTTPPVLDSDGSFFLYSKLTVDKSRWQQGNVFSCSVMHEALHNHYTQESLSLSP light: not shown"
